Laboratory results taken from patent US20250152743A1, “SYNPOPTOSIS CIRCUITS FOR PROGRAMMABLE CELL DEATH CONTROL” (California Institute of Technology, priority 2023, published 2025).

Legend:
Format in all cases: cell-based, human
HEK293FT cells [1] = experiment: Co-transfection time course, cell death every 24 h over 4 days; settings: P3/P4-zipper reconstituted TEVP
Procedure: Moreover, it was evaluated if some of these mutations affect the maximal caspase activation accessible and the time dependency between caspase activation and cell death by co-transfecting (i) input proteases (P3/P4-zipper reconstituted TEVP as a positive control, split TEVP without reconstitution domain as a negative control, or NeoR to evaluate caspase baseline activity; all with IRES-BFP to enable expression tracking) and (ii) output caspase (“ENLYFQS” (SEQ ID NO: 2)/“ENLYFQQ” (SEQ ID NO: 4)/“ENLFFQQ” (SEQ ID NO: 7)+co-transfected GFP for expression tracking) in HEK293FT cells and measuring cell death every 24 h over the course of 4 days.

HEK293FT cells [2] = experiment: Polytransfection of input proteases and caspase cleavage-site variants, Annexin staining
Text: The cleavage efficiency of proteases is known to depend on corresponding accessible cleavage sites. Mutations to native protease cleavage sites can slow (i) the recruitment of substrates to the protease active site, (ii) catalytic reaction steps, or (iii) the release of the substrate from the protease. As described herein, this property to modulate cell death executioner activation thresholds. Specifically, we surveyed the following constructs with modified protease cleavage sites across a wide range of possible cell death executioner and input protease expression regimes: […]
To evaluate how the mutated protease cleavage sites affect Caspase 3 activation, we polytransfected (i) input proteases (P3/P4-zipper reconstituted TEVP as a positive control, split TEVP without reconstitution domain as a negative control, or NeoR to evaluate caspase baseline activity; all with IRES-BFP to enable expression tracking) and (ii) output caspase (caspase+co-transfected GFP for expression tracking) in HEK293FT cells. Annexin staining as described above in Example 1 was used to quantify cell death.

HEK cells = experiment: Transient DNA transfection of HEK cells, Annexin/Sytox staining, flow cytometry

B1: TEVP-activatable caspase-3: caspase-3 whose cleavage site between large and small subunits was replaced by a TEVP cleavage site; SEQ ID NO: 10 (protein)
chain: MGSENTENSVDSKSIKNLEPKIIHGSESMDSGISLDNSYKMDYPEMGLCIIINNKNFHKSTGMTSRSGTDVDAANLRETFRNLKYEVRNKNDLTREEIVELMRDVSKEDHSKRSSFVCVLLSHGEEGIIFGTNGPVDLKKITNFFRGDRCRSLTGKPKLFIIQACRGTELDCGIETENLYFQSGVDDDMACHKIPVEADFLYAYSTAPGYYSWRNSKDGSWFIQSLCAMLKQYADKLEFMHILTRVNRKVATEFESFSFDATFHAKKQIPCIVSMLTKELYFYH
HEK293FT cells [1]
  maximal caspase activation / maximal fraction of dead cells: comparable maximal fraction of dead cells
HEK293FT cells [2]
  activation at high caspase expression with non-reconstituted split protease: leaky activation
HEK293FT cells [2]; order, decreasing: ENLFFQQ, ENLFFQY, ENLYFQS+TEVP-cleavable DHFR, ENLFFQS~ENLYFQY~ENLYFQQ, ENLYFQS, both TEVP and TVMVP cleavage site
  input/output expression required for caspase activation (activation threshold): in decreasing order
HEK cells; co-transfected with TEVP
  Sytox uptake: only modestly took up Sytox
HEK cells; expressed at high levels indicated by co-transfected Cherry
  cell death without the activating TEVP: induced noticeable cell death even without the activating TEVP
HEK cells; with TEVP, flow cytometry 16 to 24 hours after DNA transfection
  cell death / apoptosis, Annexin staining: ability of the modified caspase-3 to kill HEK cells when co-transfected with TEVP was verified
